The labels stand for the following.
B1: FBF1 (parent)
chain: LQRASILDMRRDHEEQLQRLKLLK
B2: MIA2 (parent)
chain: NSISSDKEATVPCTEILTEKKDTI
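Also: lentivirally expressed fusions sorted by FACS into six bins by GFP to DsRed ratio, PSI derived from sequencing read proportions per bin multiplied by bin number.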

The first series covers variants of B1. Description: protein stability index of a GFP-peptide fusion (GPS, HEK-293T) (PSI 1-6); higher = more stable. Particulars: c terminus: a fixed tail appended.
On to GQRASILDMRRDHEEQLQRLKLLK [L1G], for which the protein stability index was 3.89.

In the case of IQRASILDMRRDHEEQLQRLKLLK [L1I], the protein stability index is 4.12.

On to QQRASILDMRRDHEEQLQRLKLLK [L1Q], for which the protein stability index worked out at 3.69.

With RQRASILDMRRDHEEQLQRLKLLK [L1R], the protein stability index was 3.3.

As to DQRASILDMRRDHEEQLQRLKLLK [L1D], the protein stability index is 4.73.

Consider AQRASILDMRRDHEEQLQRLKLLK [L1A], for which the protein stability index worked out at 3.81.

For the variant CQRASILDMRRDHEEQLQRLKLLK [L1C], the protein stability index stood at 3.11.

Consider VQRASILDMRRDHEEQLQRLKLLK [L1V], for which the protein stability index was 3.51.

Consider SQRASILDMRRDHEEQLQRLKLLK [L1S], for which the protein stability index amounted to 3.35.

Consider KQRASILDMRRDHEEQLQRLKLLK [L1K], for which the protein stability index worked out at 3.64.

Take FQRASILDMRRDHEEQLQRLKLLK [L1F]: the protein stability index worked out at 3.19.

Take TQRASILDMRRDHEEQLQRLKLLK [L1T]: the protein stability index stood at 3.94.

Take NQRASILDMRRDHEEQLQRLKLLK [L1N]: the protein stability index was found to be 3.64.

As to EQRASILDMRRDHEEQLQRLKLLK [L1E], the protein stability index stood at 4.42.

For the variant YQRASILDMRRDHEEQLQRLKLLK [L1Y], the protein stability index amounted to 2.35.

Take HQRASILDMRRDHEEQLQRLKLLK [L1H]: the protein stability index came to 3.33.

For WQRASILDMRRDHEEQLQRLKLLK [L1W], the protein stability index worked out at 3.22.

For the variant MQRASILDMRRDHEEQLQRLKLLK [L1M], the protein stability index worked out at 3.45.

As to PQRASILDMRRDHEEQLQRLKLLK [L1P], the protein stability index came out at 3.87.

In the case of LVRASILDMRRDHEEQLQRLKLLK [Q2V], the protein stability index turned out to be 2.88.

For the variant LMRASILDMRRDHEEQLQRLKLLK [Q2M], the protein stability index was found to be 3.28.

As to LHRASILDMRRDHEEQLQRLKLLK [Q2H], the protein stability index was found to be 3.35.

Turning to LKRASILDMRRDHEEQLQRLKLLK [Q2K], the protein stability index was 2.93.

Consider LLRASILDMRRDHEEQLQRLKLLK [Q2L], for which the protein stability index is 2.25.

Regarding LIRASILDMRRDHEEQLQRLKLLK [Q2I], the protein stability index was found to be 2.49.

With LYRASILDMRRDHEEQLQRLKLLK [Q2Y], the protein stability index is 2.77.

Regarding LWRASILDMRRDHEEQLQRLKLLK [Q2W], the protein stability index amounted to 2.4.

Turning to LRRASILDMRRDHEEQLQRLKLLK [Q2R], the protein stability index was determined as 3.27.

Consider LARASILDMRRDHEEQLQRLKLLK [Q2A], for which the protein stability index is 3.28.

Regarding LTRASILDMRRDHEEQLQRLKLLK [Q2T], the protein stability index worked out at 3.54.

For the variant LGRASILDMRRDHEEQLQRLKLLK [Q2G], the protein stability index was determined as 3.79.

Regarding LSRASILDMRRDHEEQLQRLKLLK [Q2S], the protein stability index is 3.15.

Consider LNRASILDMRRDHEEQLQRLKLLK [Q2N], for which the protein stability index stood at 3.85.

For the variant LERASILDMRRDHEEQLQRLKLLK [Q2E], the protein stability index is 3.44.

In the case of LCRASILDMRRDHEEQLQRLKLLK [Q2C], the protein stability index came to 2.63.

In the case of LPRASILDMRRDHEEQLQRLKLLK [Q2P], the protein stability index was 3.95.

For LFRASILDMRRDHEEQLQRLKLLK [Q2F], the protein stability index was 3.

With LDRASILDMRRDHEEQLQRLKLLK [Q2D], the protein stability index stood at 3.94.

As to LQAASILDMRRDHEEQLQRLKLLK [R3A], the protein stability index came to 3.86.

In a further series the parent is B2. The description is as above. As to conditions: c terminus: a fixed tail appended.
For NSISSDKEATVPCTEIMTEKKDTI [L17M], the protein stability index is 5.28.

For NSISSDKEATVPCTEIKTEKKDTI [L17K], the protein stability index turned out to be 5.46.

Take NSISSDKEATVPCTEIWTEKKDTI [L17W]: the protein stability index was found to be 4.52.

NSISSDKEATVPCTEIVTEKKDTI [L17V]: the protein stability index came to 5.18.

Regarding NSISSDKEATVPCTEIPTEKKDTI [L17P], the protein stability index was 5.62.

NSISSDKEATVPCTEIHTEKKDTI [L17H]: the protein stability index stood at 5.21.

As for NSISSDKEATVPCTEIETEKKDTI [L17E], the protein stability index was 5.78.

Consider NSISSDKEATVPCTEIQTEKKDTI [L17Q], for which the protein stability index was determined as 5.4.

On to NSISSDKEATVPCTEISTEKKDTI [L17S], for which the protein stability index came to 5.57.

Take NSISSDKEATVPCTEINTEKKDTI [L17N]: the protein stability index came to 5.4.

Regarding NSISSDKEATVPCTEIITEKKDTI [L17I], the protein stability index is 5.34.

For NSISSDKEATVPCTEIYTEKKDTI [L17Y], the protein stability index is 5.37.

NSISSDKEATVPCTEIGTEKKDTI [L17G]: the protein stability index was 5.64.

For the variant NSISSDKEATVPCTEITTEKKDTI [L17T], the protein stability index is 5.71.

Take NSISSDKEATVPCTEIFTEKKDTI [L17F]: the protein stability index worked out at 5.29.

Take NSISSDKEATVPCTEIRTEKKDTI [L17R]: the protein stability index was determined as 5.45.

With NSISSDKEATVPCTEILTFKKDTI [E19F], the protein stability index stood at 4.62.

NSISSDKEATVPCTEILTAKKDTI [E19A]: the protein stability index came to 5.34.

With NSISSDKEATVPCTEILTIKKDTI [E19I], the protein stability index is 4.72.

For the variant NSISSDKEATVPCTEILTWKKDTI [E19W], the protein stability index worked out at 4.59.

For the variant NSISSDKEATVPCTEILTLKKDTI [E19L], the protein stability index was 4.43.

As to NSISSDKEATVPCTEILTYKKDTI [E19Y], the protein stability index came to 5.06.

As for NSISSDKEATVPCTEILTMKKDTI [E19M], the protein stability index turned out to be 5.08.

On to NSISSDKEATVPCTEILTCKKDTI [E19C], for which the protein stability index was determined as 5.21.

In the case of NSISSDKEATVPCTEILTHKKDTI [E19H], the protein stability index came to 5.03.

Consider NSISSDKEATVPCTEILTTKKDTI [E19T], for which the protein stability index stood at 5.17.

In the case of NSISSDKEATVPCTEILTVKKDTI [E19V], the protein stability index was determined as 5.18.

With NSISSDKEATVPCTEILTDKKDTI [E19D], the protein stability index is 5.46.

Consider NSISSDKEATVPCTEILTNKKDTI [E19N], for which the protein stability index turned out to be 5.32.

Regarding NSISSDKEATVPCTEILTGKKDTI [E19G], the protein stability index came to 5.22.

With NSISSDKEATVPCTEILTSKKDTI [E19S], the protein stability index was determined as 5.3.

As to NSISSDKEATVPCTEILTRKKDTI [E19R], the protein stability index is 5.42.

For the variant NSISSDKEATVPCTEILTQKKDTI [E19Q], the protein stability index was 5.22.

Regarding NSISSDKEATVPCTEILTPKKDTI [E19P], the protein stability index worked out at 5.66.

As to NSISSDKEATVPCTEILTKKKDTI [E19K], the protein stability index was 4.93.

For NSISSDKEATVPCTEILREKKDTI [T18R], the protein stability index amounted to 5.1.

For the variant NSISSDKEATVPCTEILIEKKDTI [T18I], the protein stability index was determined as 5.19.

In the case of NSISSDKEATVPCTEILVEKKDTI [T18V], the protein stability index stood at 5.12.

Regarding NSISSDKEATVPCTEILAEKKDTI [T18A], the protein stability index was 4.93.

As for NSISSDKEATVPCTEILDEKKDTI [T18D], the protein stability index amounted to 5.72.

In the case of NSISSDKEATVPCTEILNEKKDTI [T18N], the protein stability index is 5.46.

As for NSISSDKEATVPCTEILCEKKDTI [T18C], the protein stability index came to 5.05.

As for NSISSDKEATVPCTEILQEKKDTI [T18Q], the protein stability index is 5.4.

As for NSISSDKEATVPCTEILKEKKDTI [T18K], the protein stability index amounted to 5.42.

Take NSISSDKEATVPCTEILGEKKDTI [T18G]: the protein stability index was found to be 5.43.

Take NSISSDKEATVPCTEILSEKKDTI [T18S]: the protein stability index is 5.39.

Regarding NSISSDKEATVPCTEILHEKKDTI [T18H], the protein stability index turned out to be 5.35.

On to NSISSDKEATVPCTEILMEKKDTI [T18M], for which the protein stability index amounted to 4.89.

Consider NSISSDKEATVPCTEILPEKKDTI [T18P], for which the protein stability index came to 5.26.

For the variant NSISSDKEATVPCTEILLEKKDTI [T18L], the protein stability index was determined as 5.11.

For the variant NSISSDKEATVPCTEILWEKKDTI [T18W], the protein stability index came out at 5.05.

For NSISSDKEATVPCTEILYEKKDTI [T18Y], the protein stability index stood at 5.19.

On to NSISSDKEATVPCTEILEEKKDTI [T18E], for which the protein stability index was 5.63.

Consider NSISSDKEATVPCTEILFEKKDTI [T18F], for which the protein stability index came out at 5.48.

For the variant NSISSDKEATVPCTEILTEKKLTI [D22L], the protein stability index came to 4.57.
